{"source": "paper PMC9602519", "about": "“A Novel Cryptic Clostridial Peptide That Kills Bacteria by a Cell Membrane Permeabilization Mechanism” (Microbiology Spectrum, 2022)", "proteins": {"B1": {"name": "Intestinalin (P30) (peptide)", "peptide": "KNLLRRIRRKLRNKFSRSDVIKTPKIVEVN", "notes": "N-terminal region of the LysC autolysin of Clostridium intestinale URNW"}}, "target": "the molecule itself", "assay": "AUC; sedimentation velocity, 50,000 rpm, 20°C, absorbance at 230 nm; 10 mM sodium bicarbonate, 5 mM sodium phosphate (pH 6.8), 100 mM NaCl; with 20 mM DPC detergent (membrane mimic); c(s) distribution in SEDFIT", "data": [{"protein": "B1", "values": [{"measurement": "stoichiometry N", "value": 3}]}]}
